Substitutions are numbered along the chain they refer to.
T1: KRAS G13D (G13D-RT6) peptide on HLA-DQA1*05:01 / HLA-DQB1*03:01 (human)
T1 peptide: YKLVVVGAGDVGKSAL

B1: B8.2.4 TCR mutant α97R-A (TCR, V domains shown)
Valpha: AQKITQTQPGMFVQEKEAVTLDCTYDTSDPSYGLFWYKQPSSGEMIFLIYQGSYDQQNATEGRYSLNFQKARKSANLVISASQLGDSAMYFCAMREATGTASKLTFGTGTRLQVTL
Vbeta: DVKVTQSSRYLVKRTGEKVFLECVQDMDHENMFWYRQDPGLGLRLIYFSYDVKMKEKGDIPEGYSVSREKKERFSLILESASTNQTSMYLCASSQTVPPQHFGDGTRLSIL
B2: B8.2.4 TCR mutant α97R-C (TCR, V domains shown)
Valpha: B1 Valpha with A97C
Vbeta: B1 Vbeta
B3: B8.2.4 TCR mutant α97R-D (TCR, V domains shown)
Valpha: B1 Valpha with A97D
Vbeta: B1 Vbeta
B4: B8.2.4 TCR mutant α97R-E (TCR, V domains shown)
Valpha: B1 Valpha with A97E
Vbeta: B1 Vbeta
B5: B8.2.4 TCR mutant α97R-H (TCR, V domains shown)
Valpha: B1 Valpha with A97H
Vbeta: B1 Vbeta
B6: B8.2.4 TCR mutant α97R-I (TCR, V domains shown)
Valpha: B1 Valpha with A97I
Vbeta: B1 Vbeta
B7: B8.2.4 TCR mutant α97R-K (TCR, V domains shown)
Valpha: B1 Valpha with A97K
Vbeta: B1 Vbeta
B8: B8.2.4 TCR mutant α97R-M (TCR, V domains shown)
Valpha: B1 Valpha with A97M
Vbeta: B1 Vbeta
B9: B8.2.4 TCR mutant α97R-N (TCR, V domains shown)
Valpha: B1 Valpha with A97N
Vbeta: B1 Vbeta
B10: B8.2.4 TCR mutant α97R-Q (TCR, V domains shown)
Valpha: B1 Valpha with A97Q
Vbeta: B1 Vbeta
B11: B8.2.4 TCR mutant α97R-S (TCR, V domains shown)
Valpha: B1 Valpha with A97S
Vbeta: B1 Vbeta
B12: B8.2.4 TCR mutant α97R-T (TCR, V domains shown)
Valpha: B1 Valpha with A97T
Vbeta: B1 Vbeta
B13: B8.2.4 TCR mutant α97R-V (TCR, V domains shown)
Valpha: B1 Valpha with A97V
Vbeta: B1 Vbeta
B14: B8.2.4 TCR mutant α97R-W (TCR, V domains shown)
Valpha: B1 Valpha with A97W
Vbeta: B1 Vbeta
B15: B8.2.4 TCR mutant α97R-Y (TCR, V domains shown)
Valpha: B1 Valpha with A97Y
Vbeta: B1 Vbeta

Biological target: T1, KRAS G13D (G13D-RT6) peptide on …
Assay: NFAT-luciferase; Jurkat-NFAT-Luc with the TCR and Lovo-DPA0301:DPB0501 cells loaded with G13D-RT6; against wild-type B8.2.4 TCR; full-length, on cells
Procedure: The TCR mutant (having a mutation present in CDR3 region) lentiviral vector was transduced into Jurkat-NFAT-Luc cell line, […] (G13D-RT6, SEQ ID NO: 20) were used as antigen-presenting cells (referred to as APCs), 2×10⁴ of the TCR-T and 2×10⁴ of the antigen-loaded APCs were co-cultured for 16-24 hours, added with ONE Glo Luciferase to detect the fluorescent signal expression, then TCR Mut RLU/WT RLU (ratio of RLU signal value of TCR mutant to RLU signal value of wild-type B8.2.4TCR) was calculated, and the results were shown in Table 9.

Row | Binder | TCR Mut RLU/WT RLU [ratio]
1 | B1 | 0.13
2 | B2 | 0.27
3 | B3 | 0.17
4 | B4 | 0.16
5 | B5 | 0.13
6 | B6 | 0.16
7 | B7 | 0.24
8 | B8 | 0.17
9 | B9 | 0.16
10 | B10 | 0.16
11 | B11 | 0.22
12 | B12 | 0.23
13 | B13 | 0.16
14 | B14 | 0.18
15 | B15 | 0.16

From patent publication US20240123070A1 (published 2024)
